# Measured values published in publication PMC3836765.
# Legend:
# [1] = target: MDMX (human (endogenous in SJSA-1)) (UniProt O15151)
# [2] = target: MDM2 (human (endogenous in SJSA-1)) (UniProt Q00987)
# [3] = target: MDMX (human (endogenous in SJSA-1)) (UniProt O15151); remark: listed apart in the source
# [4] = target: MDM2 (human (endogenous in SJSA-1)) (UniProt Q00987); remark: listed apart in the source
# [5] = target: MDMX (human (endogenous in SJSA-1)) (UniProt O15151); remark: listed apart in the source
# [6] = target: MDM2 (human (endogenous in SJSA-1)) (UniProt Q00987); remark: listed apart in the source
# MDMX (human (endogenous in SJSA-1)), sequence (O15151 whole entry): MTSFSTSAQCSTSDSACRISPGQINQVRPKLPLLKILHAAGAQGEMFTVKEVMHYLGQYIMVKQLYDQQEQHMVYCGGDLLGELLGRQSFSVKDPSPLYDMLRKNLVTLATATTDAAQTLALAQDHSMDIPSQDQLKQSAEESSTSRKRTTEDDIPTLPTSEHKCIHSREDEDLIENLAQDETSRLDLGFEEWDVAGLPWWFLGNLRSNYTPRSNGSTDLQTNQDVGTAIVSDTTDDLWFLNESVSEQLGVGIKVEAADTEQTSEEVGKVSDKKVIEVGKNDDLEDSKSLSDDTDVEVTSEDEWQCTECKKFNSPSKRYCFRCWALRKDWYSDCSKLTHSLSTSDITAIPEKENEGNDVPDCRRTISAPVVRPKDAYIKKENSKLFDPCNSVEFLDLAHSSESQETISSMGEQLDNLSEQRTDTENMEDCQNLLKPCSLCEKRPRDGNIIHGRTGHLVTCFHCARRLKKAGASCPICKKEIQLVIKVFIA
# MDM2 (human (endogenous in SJSA-1)), sequence (Q00987 whole entry): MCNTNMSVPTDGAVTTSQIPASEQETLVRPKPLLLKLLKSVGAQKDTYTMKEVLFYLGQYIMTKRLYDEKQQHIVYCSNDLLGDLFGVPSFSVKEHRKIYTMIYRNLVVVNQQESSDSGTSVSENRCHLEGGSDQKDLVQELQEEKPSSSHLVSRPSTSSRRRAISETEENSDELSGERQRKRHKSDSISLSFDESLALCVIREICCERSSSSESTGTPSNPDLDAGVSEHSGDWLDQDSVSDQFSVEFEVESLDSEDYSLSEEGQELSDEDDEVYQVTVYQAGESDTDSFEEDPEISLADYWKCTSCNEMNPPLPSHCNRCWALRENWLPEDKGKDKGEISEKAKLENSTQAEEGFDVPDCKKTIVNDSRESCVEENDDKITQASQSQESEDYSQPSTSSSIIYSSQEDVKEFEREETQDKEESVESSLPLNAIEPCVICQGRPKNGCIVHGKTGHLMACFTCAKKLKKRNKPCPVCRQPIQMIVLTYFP
"p53 protein level in SJSA-1 cells after 24 h with 10 uM protein, Western blot densitometry, fold increase [3]","p53 protein level in SJSA-1 cells after 24 h with 10 uM protein, Western blot densitometry, fold increase [4]","caspase activation in SJSA-1 cells, Homogeneous Caspase Assay, 24 h, fold change [5]","caspase activation in SJSA-1 cells, Homogeneous Caspase Assay, 24 h, fold change [6]",Substance,"cytotoxicity in SJSA-1 cells, CyQuant Assay, 24 h, percent cell death relative to 10 uM rHSA-treated cells (concentrations as indicated in Figure 4A) [1]","cytotoxicity in SJSA-1 cells, CyQuant Assay, 24 h, percent cell death relative to 10 uM rHSA-treated cells (concentrations as indicated in Figure 4A) [2]"
1.5 fold,1.5 fold,< 2 fold,< 2 fold,"recombinant human serum albumin fused at its C-terminus to the wild type p53-derived peptide P53i (rHSA-P53i), biotinylated (from UniProt P02768 25-608)",60 % cell death,60 % cell death
2.9 fold,2.9 fold,7 fold,7 fold,"recombinant human serum albumin fused at its C-terminus to the MDM2/MDMX-binding peptide N8A-PMI (rHSA-PMI), biotinylated (from UniProt P02768 25-608)",84 % cell death,84 % cell death
